# Experimental data: IntAct's records for PubMed 31515488
# B1: Protein transport protein (Homo sapiens), Q15437 (parent)
# chain: MATYLEFIQQNEERDGVRFSWNVWPSSRLEATRMVVPLACLLTPLKERPDLPPVQYEPVLCSRPTCKAVLNPLCQVDYRAKLWACNFCFQRNQFPPAYGGISEVNQPAELMPQFSTIEYVIQRGAQSPLIFLYVVDTCLEEDDLQALKESLQMSLSLLPPDALVGLITFGRMVQVHELSCEGISKSYVFRGTKDLTAKQIQDMLGLTKPAMPMQQARPAQPQEHPFASSRFLQPVHKIDMNLTDLLGELQRDPWPVTQGKRPLRSTGVALSIAVGLLEGTFPNTGARIMLFTGGPPTQGPGMVVGDELKIPIRSWHDIEKDNARFMKKATKHYEMLANRTAANGHCIDIYACALDQTGLLEMKCCANLTGGYMVMGDSFNTSLFKQTFQRIFTKDFNGDFRMAFGATLDVKTSRELKIAGAIGPCVSLNVKGPCVSENELGVGGTSQWKICGLDPTSTLGIYFEVVNQHNTPIPQGGRGAIQFVTHYQHSSTQRRIRVTTIARNWADVQSQLRHIEAAFDQEAAAVLMARLGVFRAESEEGPDVLRWLDRQLIRLCQKFGQYNKEDPTSFRLSDSFSLYPQFMFHLRRSPFLQVFNNSPDESSYYRHHFARQDLTQSLIMIQPILYSYSFHGPPEPVLLDSSSILADRILLMDTFFQIVIYLGETIAQWRKAGYQDMPEYENFKHLLQAPLDDAQEILQARFPMPRYINTEHGGSQARFLLSKVNPSQTHNNLYAWGQETGAPILTDDVSLQVFMDHLKKLAVSSAC
# partner: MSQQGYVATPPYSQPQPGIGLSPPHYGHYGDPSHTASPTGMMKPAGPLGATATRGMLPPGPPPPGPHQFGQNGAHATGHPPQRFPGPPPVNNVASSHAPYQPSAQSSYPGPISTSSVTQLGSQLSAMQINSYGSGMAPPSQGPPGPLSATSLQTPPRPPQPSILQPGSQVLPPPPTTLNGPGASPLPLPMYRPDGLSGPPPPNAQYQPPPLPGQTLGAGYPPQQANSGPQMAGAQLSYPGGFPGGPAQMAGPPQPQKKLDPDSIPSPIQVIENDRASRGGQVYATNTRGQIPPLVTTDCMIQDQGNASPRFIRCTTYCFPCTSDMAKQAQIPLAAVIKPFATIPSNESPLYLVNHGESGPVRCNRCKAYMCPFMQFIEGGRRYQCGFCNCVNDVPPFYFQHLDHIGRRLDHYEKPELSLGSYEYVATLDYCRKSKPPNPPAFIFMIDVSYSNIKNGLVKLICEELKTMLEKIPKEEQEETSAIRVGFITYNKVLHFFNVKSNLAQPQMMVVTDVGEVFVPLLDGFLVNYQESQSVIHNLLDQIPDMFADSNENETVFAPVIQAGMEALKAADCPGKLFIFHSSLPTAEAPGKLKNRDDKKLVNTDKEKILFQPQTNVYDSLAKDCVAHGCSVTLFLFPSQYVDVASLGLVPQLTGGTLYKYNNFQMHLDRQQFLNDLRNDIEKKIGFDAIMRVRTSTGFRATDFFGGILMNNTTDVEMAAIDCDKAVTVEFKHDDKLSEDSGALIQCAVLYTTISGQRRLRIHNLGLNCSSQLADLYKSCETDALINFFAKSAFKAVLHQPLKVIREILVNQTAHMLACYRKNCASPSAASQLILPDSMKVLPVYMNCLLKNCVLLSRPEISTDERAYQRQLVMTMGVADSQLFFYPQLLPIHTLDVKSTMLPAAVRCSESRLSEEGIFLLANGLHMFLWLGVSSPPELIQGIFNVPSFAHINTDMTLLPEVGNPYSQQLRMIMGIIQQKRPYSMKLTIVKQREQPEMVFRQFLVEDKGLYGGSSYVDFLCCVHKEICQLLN
# B2: Centrin-1 (Homo sapiens), Q12798 (parent)
# chain: MASGFKKPSAASTGQKRKVAPKPELTEDQKQEVREAFDLFDVDGSGTIDAKELKVAMRALGFEPRKEEMKKMISEVDREGTGKISFNDFLAVMTQKMSEKDTKEEILKAFRLFDDDETGKISFKNLKRVANELGENLTDEELQEMIDEADRDGDGEVNEEEFLRIMKKTSLY
# partner: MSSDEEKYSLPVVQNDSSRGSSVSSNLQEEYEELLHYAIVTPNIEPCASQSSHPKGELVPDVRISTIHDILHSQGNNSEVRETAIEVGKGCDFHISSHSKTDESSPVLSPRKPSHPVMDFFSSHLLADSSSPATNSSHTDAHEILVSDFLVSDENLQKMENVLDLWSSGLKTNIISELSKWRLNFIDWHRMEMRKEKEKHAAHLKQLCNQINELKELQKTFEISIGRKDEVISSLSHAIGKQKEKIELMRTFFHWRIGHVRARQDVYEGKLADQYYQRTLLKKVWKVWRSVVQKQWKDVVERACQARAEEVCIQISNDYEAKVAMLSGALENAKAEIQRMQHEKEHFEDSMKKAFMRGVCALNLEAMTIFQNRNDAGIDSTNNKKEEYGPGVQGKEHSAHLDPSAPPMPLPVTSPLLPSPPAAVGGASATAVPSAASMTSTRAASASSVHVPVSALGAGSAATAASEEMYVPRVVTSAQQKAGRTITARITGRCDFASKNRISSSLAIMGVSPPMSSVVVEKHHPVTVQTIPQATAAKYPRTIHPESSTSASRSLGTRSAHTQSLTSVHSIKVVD
# B3: Meiotic recombination protein DMC1/LIM15 homolog (Homo sapiens), Q14565 (parent)
# chain: MKEDQVVAEEPGFQDEEESLFQDIDLLQKHGINVADIKKLKSVGICTIKGIQMTTRRALCNVKGLSEAKVDKIKEAANKLIEPGFLTAFEYSEKRKMVFHITTGSQEFDKLLGGGIESMAITEAFGEFRTGKTQLSHTLCVTAQLPGAGGYPGGKIIFIDTENTFRPDRLRDIADRFNVDHDAVLDNVLYARAYTSEHQMELLDYVAAKFHEEAGIFKLLIIDSIMALFRVDFSGRGELAERQQKLAQMLSRLQKISEEYNVAVFVTNQMTADPGATMTFQADPKKPIGGHILAHASTTRISLRKGRGELRIAKIYDSPEMPENEATFAITAGGIGDAKE
# partner: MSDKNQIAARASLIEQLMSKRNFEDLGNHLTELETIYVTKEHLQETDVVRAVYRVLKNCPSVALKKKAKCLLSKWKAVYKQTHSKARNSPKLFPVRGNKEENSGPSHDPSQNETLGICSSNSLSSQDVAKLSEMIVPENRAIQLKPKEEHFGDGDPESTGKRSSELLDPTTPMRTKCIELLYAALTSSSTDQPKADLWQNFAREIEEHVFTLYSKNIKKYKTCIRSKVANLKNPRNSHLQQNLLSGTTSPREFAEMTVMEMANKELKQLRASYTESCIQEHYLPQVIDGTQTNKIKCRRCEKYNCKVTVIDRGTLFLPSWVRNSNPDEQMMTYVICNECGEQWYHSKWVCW
# B4: Inactive peptidyl-prolyl cis-trans isomerase FKBP6 (Homo sapiens), O75344 (parent)
# chain: MGGSALNQGVLEGDDAPGQSLYERLSQRMLDISGDRGVLKDVIREGAGDLVAPDASVLVKYSGYLEHMDRPFDSNYFRKTPRLMKLGEDITLWGMELGLLSMRRGELARFLFKPNYAYGTLGCPPLIPPNTTVLFEIELLDFLDCAESDKFCALSAEQQDQFPLQKVLKVAATEREFGNYLFRQNRFYDAKVRYKRALLLLRRRSAPPEEQHLVEAAKLPVLLNLSFTYLKLDRPTIALCYGEQALIIDQKNAKALFRCGQACLLLTEYQKARDFLVRAQKEQPFNHDINNELKKLASCYRDYVDKEKEMWHRMFAPCGDGSTAGES
# partner: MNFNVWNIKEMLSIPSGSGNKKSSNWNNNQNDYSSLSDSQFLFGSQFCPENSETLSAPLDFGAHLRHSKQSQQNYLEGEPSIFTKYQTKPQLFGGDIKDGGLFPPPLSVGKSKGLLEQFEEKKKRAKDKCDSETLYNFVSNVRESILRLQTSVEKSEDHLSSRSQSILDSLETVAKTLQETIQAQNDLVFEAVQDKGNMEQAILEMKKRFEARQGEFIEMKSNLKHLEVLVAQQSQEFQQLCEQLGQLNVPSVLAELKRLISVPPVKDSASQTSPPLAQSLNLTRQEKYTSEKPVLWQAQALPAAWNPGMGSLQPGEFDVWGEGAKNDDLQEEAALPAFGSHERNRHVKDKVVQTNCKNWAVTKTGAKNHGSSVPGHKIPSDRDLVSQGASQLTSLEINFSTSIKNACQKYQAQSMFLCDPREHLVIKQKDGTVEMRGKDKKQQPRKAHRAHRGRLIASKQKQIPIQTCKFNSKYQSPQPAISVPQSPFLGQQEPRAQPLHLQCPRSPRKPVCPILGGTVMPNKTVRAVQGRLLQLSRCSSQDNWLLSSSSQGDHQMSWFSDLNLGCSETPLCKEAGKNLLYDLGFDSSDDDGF
# B5: Tektin-4 (Homo sapiens), Q8WW24 (parent)
# chain: MAQTVPPCELPCKEYDVARNTGAYTSSGLATASFRTSKYLLEEWFQNCYARYHQAFADRDQSERQRHESQQLATETQALAQRTQQDSTRTVGERLQDTHSWKSELQREMEALAAETNLLLAQKQRLERALDATEVPFSITTDNLQCRERREHPNLVRDHVETELLKEAELIRNIQELLKRTIMQAVSQIRLNREHKETCEMDWSDKMEAYNIDETCGRHHSQSTEVQAHPYSTTFQESASTPETRAKFTQDNLCRAQRERLASANLRVLVDCILRDTSEDLRLQCDAVNLAFGRRCEELEDARYKLHHHLHKTLREITDQEHNVAALKQAIKDKEAPLHVAQTRLYLRSHRPNMELCRDAAQFRLLSEVEELNMSLTALREKLLEAEQSLRNLEDIHMSLEKDIAAMTNSLFIDRQKCMAHRTRYPTILQLAGYQ
# partner: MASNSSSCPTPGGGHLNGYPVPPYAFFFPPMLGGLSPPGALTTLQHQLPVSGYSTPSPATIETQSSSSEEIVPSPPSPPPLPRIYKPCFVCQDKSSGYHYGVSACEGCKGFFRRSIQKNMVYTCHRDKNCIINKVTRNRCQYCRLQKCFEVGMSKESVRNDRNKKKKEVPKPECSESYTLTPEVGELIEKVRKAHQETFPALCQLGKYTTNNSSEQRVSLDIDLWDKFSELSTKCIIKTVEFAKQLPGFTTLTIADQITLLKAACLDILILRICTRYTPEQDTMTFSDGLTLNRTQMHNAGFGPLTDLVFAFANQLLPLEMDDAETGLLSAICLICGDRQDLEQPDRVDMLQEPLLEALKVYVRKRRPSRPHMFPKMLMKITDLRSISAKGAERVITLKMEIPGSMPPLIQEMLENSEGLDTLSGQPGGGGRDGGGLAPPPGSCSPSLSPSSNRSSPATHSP
# Variants of: B1
# Conditions: with sc24d_human SEC24D
row,effect of a mutation on the interaction,Variant
1,with no effect,V426I

# Variants of: B2
# Conditions: with poc5_human POC5, Q8NA72
row,effect of a mutation on the interaction,Variant
1,with no effect,M72T

# Variants of: B3
# Conditions: with teanc_human TCEANC
row,effect of a mutation on the interaction,Variant
1,with no effect,I288T

# Variants of: B4
# Conditions: with iho1_human IHO1, Q8IYA8
row,effect of a mutation on the interaction,Variant
1,with no effect,H287N
2,with no effect,R175Q

# Variants of: B5
# Conditions: with rara_human RARA
row,effect of a mutation on the interaction,Variant
1,disrupting interaction strength,C272S
